IntAct's records for PubMed 19279667

B1: Integrin beta-3 (Homo sapiens), P05106 (parent)
chain: MRARPRPRPLWATVLALGALAGVGVGGPNICTTRGVSSCQQCLAVSPMCAWCSDEALPLGSPRCDLKENLLKDNCAPESIEFPVSEARVLEDRPLSDKGSGDSSQVTQVSPQRIALRLRPDDSKNFSIQVRQVEDYPVDIYYLMDLSYSMKDDLWSIQNLGTKLATQMRKLTSNLRIGFGAFVDKPVSPYMYISPPEALENPCYDMKTTCLPMFGYKHVLTLTDQVTRFNEEVKKQSVSRNRDAPEGGFDAIMQATVCDEKIGWRNDASHLLVFTTDAKTHIALDGRLAGIVQPNDGQCHVGSDNHYSASTTMDYPSLGLMTEKLSQKNINLIFAVTENVVNLYQNYSELIPGTTVGVLSMDSSNVLQLIVDAYGKIRSKVELEVRDLPEELSLSFNATCLNNEVIPGLKSCMGLKIGDTVSFSIEAKVRGCPQEKEKSFTIKPVGFKDSLIVQVTFDCDCACQAQAEPNSHRCNNGNGTFECGVCRCGPGWLGSQCECSEEDYRPSQQDECSPREGQPVCSQRGECLCGQCVCHSSDFGKITGKYCECDDFSCVRYKGEMCSGHGQCSCGDCLCDSDWTGYYCNCTTRTDTCMSSNGLLCSGRGKCECGSCVCIQPGSYGDTCEKCPTCPDACTFKKECVECKKFDRGALHDENTCNRYCRDEIESVKELKDTGKDAVNCTYKNEDDCVVRFQYYEDSSGKSILYVVEEPECPKGPDILVVLLSVMGAILLIGLAALLIWKLLITIHDRKEFAKFEEERARAKWDTANNPLYKEATSTFTNITYRGT

Variants of: B1
Conditions: with ita2b_human ITGA2B

Row | effect of a mutation on the interaction | Variant
1 | decreasing interaction | I719A

Variants of: B1
Conditions: with ita2b_human ITGA2B
Remark: another data set of the same source

Row | effect of a mutation on the interaction | Variant
2 | decreasing interaction | D749A

Variants of: B1
Conditions: with ita2b_human ITGA2B
Remark: another data set of the same source

Row | effect of a mutation on the interaction | Variant
3 | decreasing interaction | L738A

Variants of: B1
Conditions: with ita2b_human ITGA2B
Remark: another data set of the same source

Row | effect of a mutation on the interaction | Variant
4 | decreasing interaction | W741Y
